Data: IntAct's records for PubMed 25588830

B1: Septin-12 (Homo sapiens), Q8IYM1 (parent)
chain: MDPLRRSPSPCLSSQPSSPSTPPCEMLGPVGIEAVLDQLKIKAMKMGFEFNIMVVGQSGLGKSTMVNTLFKSKVWKSNPPGLGVPTPQTLQLHSLTHVIEEKGVKLKLTVTDTPGFGDQINNDNCWDPILGYINEQYEQYLQEEILITRQRHIPDTRVHCCVYFVPPTGHCLRPLDIEFLQRLCRTVNVVPVIARADSLTMEEREAFRRRIQQNLRTHCIDVYPQMCFDEDINDKILNSKLRDRIPFAVVGADQEHLVNGRCVLGRKTKWGIIEVENMAHCEFPLLRDLLIRSHLQDLKDITHNIHYENYRVIRLNESHLLPRGPGWVNLAPASPGQLTTPRTFKVCRGAHDDSDDEF
partner: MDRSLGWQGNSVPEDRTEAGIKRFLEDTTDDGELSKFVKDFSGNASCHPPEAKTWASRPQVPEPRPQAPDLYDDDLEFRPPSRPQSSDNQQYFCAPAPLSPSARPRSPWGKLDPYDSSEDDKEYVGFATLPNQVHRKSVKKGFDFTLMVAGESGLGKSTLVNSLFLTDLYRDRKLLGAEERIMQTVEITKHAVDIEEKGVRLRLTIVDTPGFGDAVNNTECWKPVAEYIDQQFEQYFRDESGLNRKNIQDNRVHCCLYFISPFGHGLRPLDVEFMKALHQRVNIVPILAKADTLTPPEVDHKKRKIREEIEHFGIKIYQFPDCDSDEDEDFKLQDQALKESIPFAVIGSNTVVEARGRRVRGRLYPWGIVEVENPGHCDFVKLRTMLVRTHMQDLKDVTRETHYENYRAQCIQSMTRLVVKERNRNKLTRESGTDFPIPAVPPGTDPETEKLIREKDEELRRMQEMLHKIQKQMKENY
B2: Septin-12 (Homo sapiens), Q8IYM1 (parent)
chain: B1 chain
partner: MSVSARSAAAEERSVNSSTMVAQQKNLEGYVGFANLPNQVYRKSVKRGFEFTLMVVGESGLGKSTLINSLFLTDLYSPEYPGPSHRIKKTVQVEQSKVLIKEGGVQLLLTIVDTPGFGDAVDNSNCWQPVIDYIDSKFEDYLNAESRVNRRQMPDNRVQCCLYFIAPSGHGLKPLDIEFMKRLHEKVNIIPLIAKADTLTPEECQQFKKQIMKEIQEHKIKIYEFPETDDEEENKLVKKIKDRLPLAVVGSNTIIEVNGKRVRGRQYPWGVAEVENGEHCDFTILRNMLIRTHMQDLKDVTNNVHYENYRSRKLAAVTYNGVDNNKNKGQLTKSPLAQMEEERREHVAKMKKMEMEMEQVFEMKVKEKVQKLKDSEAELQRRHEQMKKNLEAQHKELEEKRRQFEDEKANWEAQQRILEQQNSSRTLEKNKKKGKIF
B3: Septin-12 (Homo sapiens), Q8IYM1 (parent)
chain: B1 chain
partner: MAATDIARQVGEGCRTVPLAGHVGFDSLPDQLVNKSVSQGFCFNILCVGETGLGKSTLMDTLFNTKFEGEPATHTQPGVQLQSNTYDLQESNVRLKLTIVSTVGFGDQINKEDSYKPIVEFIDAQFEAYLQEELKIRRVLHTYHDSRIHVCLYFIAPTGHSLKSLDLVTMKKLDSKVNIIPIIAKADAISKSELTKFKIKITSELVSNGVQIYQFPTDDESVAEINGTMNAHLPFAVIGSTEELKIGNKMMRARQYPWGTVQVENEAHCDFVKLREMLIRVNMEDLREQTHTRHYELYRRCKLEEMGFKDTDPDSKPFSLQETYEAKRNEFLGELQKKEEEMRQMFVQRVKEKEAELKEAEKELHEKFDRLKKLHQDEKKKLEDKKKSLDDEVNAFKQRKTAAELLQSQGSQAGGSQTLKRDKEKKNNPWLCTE
B4: Septin-12 (Homo sapiens), Q8IYM1 (parent)
chain: B1 chain
partner: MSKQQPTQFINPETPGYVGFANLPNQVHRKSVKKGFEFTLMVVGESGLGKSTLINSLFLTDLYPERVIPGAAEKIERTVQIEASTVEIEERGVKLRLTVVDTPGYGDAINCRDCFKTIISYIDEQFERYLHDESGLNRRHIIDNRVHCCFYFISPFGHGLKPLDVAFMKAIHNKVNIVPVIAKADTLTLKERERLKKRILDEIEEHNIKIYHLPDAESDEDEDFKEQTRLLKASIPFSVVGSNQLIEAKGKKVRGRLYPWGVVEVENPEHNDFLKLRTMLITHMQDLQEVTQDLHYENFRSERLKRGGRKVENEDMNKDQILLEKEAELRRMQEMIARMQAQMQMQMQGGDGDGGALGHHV

Variants of: B1
Conditions: with sept4_human SEPTIN4, O43236

How did the “effect of a mutation on the interaction” value turn out when D197N was run?
Its value is “disrupting interaction”.

Variants of: B2
Conditions: with sept7_human SEPTIN7, Q16181

With D197N as the variant, how does the “effect of a mutation on the interaction” value read?
The value was “disrupting interaction strength”.

For T89M, which “effect of a mutation on the interaction” value is on record?
The value was “disrupting interaction strength”.

Variants of: B2
Conditions: with sept7_human SEPTIN7, Q16181
Remark: another data set of the same source

Which “effect of a mutation on the interaction” value does the source give for D197N here?
Its value is “disrupting interaction”.

Which “effect of a mutation on the interaction” value does the source give for T89M here?
The value was “decreasing interaction”.

Variants of: B3
Conditions: with sept6_human SEPTIN6, Q14141

D197N was tested. Which “effect of a mutation on the interaction” value did it give?
Its value is “disrupting interaction”.

Variants of: B4
Conditions: with sept2_human SEPTIN2, Q15019

How did the “effect of a mutation on the interaction” value turn out when D197N was run?
Its value is “disrupting interaction”.
